Test results from article PMC6494814, “Kremen1-induced cell death is regulated by homo- and heterodimerization” (Cell Death Discovery, 2019).

B1: HA-Krm1secECD, secreted ectodomain of Krm1 (lacks the transmembrane and intracellular domains) (domain or fragment, UniProt Q99N43 21-392, looked up)
chain: RPAPGPRSGPECFTANGADYRGTQSWTALQGGKPCLFWNETFQHPYNTLKYPNGEGGLGEHNYCRNPDGDVSPWCYVAEHEDGVYWKYCEIPACQMPGNLGCYKDHGNPPPLTGTSKTSNKLTIQTCISFCRSQRFKFAGMESGYACFCGNNPDYWKHGEAASTECNSVCFGDHTQPCGGDGRIILFDTLVGACGGNYSAMAAVVYSPDFPDTYATGRVCYWTIRVPGASRIHFNFTLFDIRDSADMVELLDGYTHRVLVRLSGRSRPPLSFNVSLDFVILYFFSDRINQAQGFAVLYQATKEEPPQERPAVNQTLAEVITEQANLSVSAAHSSKVLYVITPSPSHPPQTAPGSHSWAPSVGANSHRVEGWT
B2: Kremen1 (Krm1), full length, Flag-tagged or HA-tagged (receptor, UniProt Q99N43 20-473, looked up)
chain: ARPAPGPRSGPECFTANGADYRGTQSWTALQGGKPCLFWNETFQHPYNTLKYPNGEGGLGEHNYCRNPDGDVSPWCYVAEHEDGVYWKYCEIPACQMPGNLGCYKDHGNPPPLTGTSKTSNKLTIQTCISFCRSQRFKFAGMESGYACFCGNNPDYWKHGEAASTECNSVCFGDHTQPCGGDGRIILFDTLVGACGGNYSAMAAVVYSPDFPDTYATGRVCYWTIRVPGASRIHFNFTLFDIRDSADMVELLDGYTHRVLVRLSGRSRPPLSFNVSLDFVILYFFSDRINQAQGFAVLYQATKEEPPQERPAVNQTLAEVITEQANLSVSAAHSSKVLYVITPSPSHPPQTAPGSHSWAPSVGANSHRVEGWTVYGLATLLILTVTAVVAKILLHVTFKSHRVPASGDLRDCRQPGASGDIWTIFYEPSTTISIFKKKLKGQSQQDDRNPLVSD
notes: Kremen1 (Krm1), transmembrane receptor, full length; Two differently tagged copies of the same full-length protein (Flag-Krm1, HA-Krm1), each with ONE tag, written as one molecule for the self-association; In rows with truncated Krm1 or with Krm2 the Flag-tagged copy is the bait; Vector pCAG-IRES-EGFP or pCS2; also called Flag-Krm1; HA-Krm1; source: HEK293T, transfected, in lysate; not shown: …

Tests used:
[1] = molecular target: B2; test: cell-based or functional assay
[2] = molecular target: the molecule itself; test: cross-linking; HEK293T cells transfected with HA-Krm1 and Flag-Krm1, 0.2 mM BS3 (non cell-permeant) on ice for 30 min prior to lysis; straight western blots and anti-Flag immunoprecipitation with anti-HA blot

B1
proportion of cleaved Caspase-3+ cells among HA+ HEK293T cells transfected with HA-Krm1 and either GFP or Krm1secECD; the pair interfered with is Krm1 with Krm1 (dimerization) [1]: 2 fold decrease

B2
stoichiometry N [2]: 2
